Results published in patent publication US20040265337A1, “Method of generating an immune response and compositions used for same” (priority 2002, published 2004).

Columns and labels:
trypsin = conditions: in vitro; cited from earlier work
human CEA antigen = assay: Cytotoxicity (CTL) assays in HD-5 transgenic mice immunized orally with the Salmonella based CEA-DNA vaccine; type: in vivo; conditions: oral immunization, defensin inhibitor co-formulated or expressed by the strain
From the text: HD-5 inhibitors enhance efficacy of whole organism vaccines such as Salmonella enterica serovar Typhimurium. Human defensin 5 (HD-5), is the major defensin in humans which is bactericidal for Salmonella typhimurium infection. HD-5 transgenic mice are dramatically more resistant to Salmonella typhimurium infection providing a model system to study effectiveness of Salmonella typhimurium as a platform vaccine carrier in the presence of inhibitors of HD-5. See Gosh D. et al., Nature Immunology, 3:583 (2002); Zasloff M, Nature Immunology, 3:508 (2002). HD-5 inhibitors increase efficacy of the Salmonella enterica based human CEA-DNA vaccine. Human CEA (carcinoembryonic antigen) is a tumor antigen for which protective immunity can be induced by vaccination with a live attenuated Salmonella enterica vaccine. See Xiang R. et al., Clinical Cancer Research, 7: 856s (2001). Efficacy of the vaccine is measured by conducting cytotoxicity (CTL) assays in HD-5 transgenic mice to measure immune response to the human CEA antigen. CTL assays are conducted in mice immunized orally with various doses of the vaccine (RemeStim-CEA), with or without addition of the HD-5 inhibitor. […]

HD-5 = target: T1, HD-5 (Homo sapiens, UniProt Q01523); conditions: in vitro, against Salmonella enterica serovar Typhimurium; cited from earlier work
T1 sequence (Q01523 63-94 limits assumed): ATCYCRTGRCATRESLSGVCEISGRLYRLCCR

[1] = system: Salmonella enterica serovar Typhimurium; conditions: cited from earlier work

N=C(N)c1ccc(CS(=O)(=O)F)cc1 [APMSF, 4-amidinophelylmethane sulfonyl-fluoride]
inhibition of maturation of pro-HD-5 to mature HD-5 by trypsin (trypsin): inhibit maturation of pro-HD-5 to mature HD-5

Dermatan sulfate [reference compound]
effectiveness of the Salmonella based CEA-DNA vaccine as measured by cytotoxicity assays (human CEA antigen): enhances the effectiveness | inhibition of the bactericidal activity of the mature, active defensin (HD-5): inactivates alpha-defensin anti-bacterial activity

Pro-piece of HD-5: pro-domain of human HD-5 (amino acids 20-62), HD-5 peptide inhibitor (ESLQERADEATTQKQSGEDNQDLAISFAGNGLSALRTSGSQAR)
inhibition of the bactericidal activity of the mature, active defensin (HD-5): inhibit the bactericidal activity

alpha 1-proteinase inhibitor: serpin, inhibitor of defensins
inhibition of the bactericidal activity of the mature, active defensin (HD-5): inhibit the bactericidal activity

alpha 2-macroglobulin: protein inhibitor of defensins
inhibition of the bactericidal activity of the mature, active defensin (HD-5): inhibit the bactericidal activity

B1: HD-5: human defensin 5, anti-microbial peptide of the human intestine (protein, UniProt Q01523 20-94, looked up)
Defensin alpha 5: ESLQERADEATTQKQSGEDNQDLAISFAGNGLSALRTSGSQARATCYCRTGRCATRESLSGVCEISGRLYRLCCR
modifications: Defensin-5
notes: human defensin 5, anti-microbial peptide of the human intestine
bactericidal activity against Salmonella Typhimurium [1]: bactericidal

B2: alpha 1-antichymotrypsin: serpin, inhibitor of defensins (protein, UniProt P01011 24-423, looked up)
Alpha-1-antichymotrypsin: HPNSPLDEENLTQENQDRGTHVDLGLASANVDFAFSLYKQLVLKAPDKNVIFSPLSISTALAFLSLGAHNTTLTEILKGLKFNLTETSEAEIHQSFQHLLRTLNQSSDELQLSMGNAMFVKEQLSLLDRFTEDAKRLYGSEAFATDFQDSAAAKKLINDYVKNGTRGKITDLIKDLDSQTMMVLVNYIFFKAKWEMPFDPQDTHQSRFYLSKKKWVMVPMMSLHHLTIPYFRDEELSCTVVELKYTGNASALFILPDQDKMEEVEAMLLPETLKRWRDSLEFREIGELYLPKFSISRDYNLNDILLQLGIEEAFTSKADLSGITGARNLAVSQVVHKAVLDVFEEGTEASAATAVKITLLSALVETRTIVRFNRPFLMIIVPTDTQNIFFMSKVTNPKQA
inhibition of the bactericidal activity of the mature, active defensin (HD-5): inhibit the bactericidal activity
